{"source": "patent US20050112126A1", "about": "(Genentech, published 2005)", "binders": {"B1": {"name": "pY0192 VH T28A (Fab, V domains shown)", "VH": "EVQLVESGGGLVQPGGSLRLSCAASGYAFTNYGINWVRQAPGKGLEWVGWINTYTGEPTYAADFKRRFTFSLDTSKSTAYLQMNSLRAEDTAVYYCAKYPHYYGSSHWYFDVWGQGTL", "VL": "DIQLTQSPSSLSASVGDRVTITCRANEQLSNYLNWYQQKPGKAPKVLIYFTSSLHSGVPSRFSGSGSGTDFTLTISSLQPEDFATYYCQQYSTVPWTFGQGTKVEIKR", "notes": "Ala-scan variant of pY0192; Fab on phage"}, "B2": {"name": "pY0192 VL L33A (Fab, V domains shown)", "VH": "B1 VH with A28T", "VL": "B1 VL with L33A", "notes": "as for B1"}, "B3": {"name": "pY0192 VH Y102A (Fab, V domains shown)", "VH": "B1 VH with A28T, Y102A", "VL": "B1 VL", "notes": "as for B1"}, "B4": {"name": "pY0192 VL Y91A (Fab, V domains shown)", "VH": "B1 VH with A28T", "VL": "B1 VL with Y91A", "notes": "as for B1"}, "B5": {"name": "pY0192 VH T30A (Fab, V domains shown)", "VH": "B1 VH with A28T, T30A", "VL": "B1 VL", "notes": "as for B1"}, "B6": {"name": "pY0192 VL S30A (Fab, V domains shown)", "VH": "B1 VH with A28T", "VL": "B1 VL with S30A", "notes": "as for B1"}, "B7": {"name": "pY0192 VL T51A (Fab, V domains shown)", "VH": "B1 VH with A28T", "VL": "B1 VL with T51A", "notes": "as for B1"}, "B8": {"name": "pY0192 VH T55A (Fab, V domains shown)", "VH": "B1 VH with A28T, T55A", "VL": "B1 VL", "notes": "as for B1"}, "B9": {"name": "pY0192 VH Y54A (Fab, V domains shown)", "VH": "B1 VH with A28T, Y54A", "VL": "B1 VL", "notes": "as for B1"}, "B10": {"name": "pY0192 VH Y109A (Fab, V domains shown)", "VH": "B1 VH with A28T, Y109A", "VL": "B1 VL", "notes": "as for B1"}, "B11": {"name": "pY0192 VL A25S (Fab, V domains shown)", "VH": "B1 VH with A28T", "VL": "B1 VL with A25S", "notes": "as for B1"}, "B12": {"name": "pY0192 VL P95A (Fab, V domains shown)", "VH": "B1 VH with A28T", "VL": "B1 VL with P95A", "notes": "as for B1"}, "B13": {"name": "pY0192 VH Y27A (Fab, V domains shown)", "VH": "B1 VH with Y27A, A28T", "VL": "B1 VL", "notes": "as for B1"}, "B14": {"name": "pY0192 VL S92A (Fab, V domains shown)", "VH": "B1 VH with A28T", "VL": "B1 VL with S92A", "notes": "as for B1"}, "B15": {"name": "pY0192 VL Q89A (Fab, V domains shown)", "VH": "B1 VH with A28T", "VL": "B1 VL with Q89A", "notes": "as for B1"}, "B16": {"name": "pY0192 VL V94A (Fab, V domains shown)", "VH": "B1 VH with A28T", "VL": "B1 VL with V94A", "notes": "as for B1"}, "B17": {"name": "pY0192 VL Q28A (Fab, V domains shown)", "VH": "B1 VH with A28T", "VL": "B1 VL with Q28A", "notes": "as for B1"}, "B18": {"name": "pY0192 VL N34A (Fab, V domains shown)", "VH": "B1 VH with A28T", "VL": "B1 VL with N34A", "notes": "as for B1"}, "B19": {"name": "pY0192 VL N26A (Fab, V domains shown)", "VH": "B1 VH with A28T", "VL": "B1 VL with N26A", "notes": "as for B1"}, "B20": {"name": "pY0192 VL F50A (Fab, V domains shown)", "VH": "B1 VH with A28T", "VL": "B1 VL with F50A", "notes": "as for B1"}, "B21": {"name": "pY0192 VL S56A (Fab, V domains shown)", "VH": "B1 VH with A28T", "VL": "B1 VL with S56A", "notes": "as for B1"}, "B22": {"name": "pY0192 VL L29A (Fab, V domains shown)", "VH": "B1 VH with A28T", "VL": "B1 VL with L29A", "notes": "as for B1"}, "B23": {"name": "pY0192 VH Y103A (Fab, V domains shown)", "VH": "B1 VH with A28T, Y103A", "VL": "B1 VL", "notes": "as for B1"}, "B24": {"name": "pY0192 VH Y60A (Fab, V domains shown)", "VH": "B1 VH with A28T, Y60A", "VL": "B1 VL", "notes": "as for B1"}, "B25": {"name": "pY0192 VL Q90A (Fab, V domains shown)", "VH": "B1 VH with A28T", "VL": "B1 VL with Q90A", "notes": "as for B1"}, "B26": {"name": "pY0192 VL N31A (Fab, V domains shown)", "VH": "B1 VH with A28T", "VL": "B1 VL with N31A", "notes": "Ala-scan variant of pY0192; Fab on phage; also called N31A (VL)"}, "B27": {"name": "pY0192 VL R24A (Fab, V domains shown)", "VH": "B1 VH with A28T", "VL": "B1 VL with R24A", "notes": "as for B1"}, "B28": {"name": "pY0192 VL S52A (Fab, V domains shown)", "VH": "B1 VH with A28T", "VL": "B1 VL with S52A", "notes": "as for B1"}, "B29": {"name": "pY0192 VH T59A (Fab, V domains shown)", "VH": "B1 VH with A28T, T59A", "VL": "B1 VL", "notes": "as for B1"}, "B30": {"name": "pY0192 VL T97A (Fab, V domains shown)", "VH": "B1 VH with A28T", "VL": "B1 VL with T97A", "notes": "as for B1"}, "B31": {"name": "pY0192 VL E27A (Fab, V domains shown)", "VH": "B1 VH with A28T", "VL": "B1 VL with E27A", "notes": "as for B1"}, "B32": {"name": "pY0192 VL S53A (Fab, V domains shown)", "VH": "B1 VH with A28T", "VL": "B1 VL with S53A", "notes": "as for B1"}, "B33": {"name": "pY0192 VL L54A (Fab, V domains shown)", "VH": "B1 VH with A28T", "VL": "B1 VL with L54A", "notes": "as for B1"}, "B34": {"name": "pY0192 VH T53A (Fab, V domains shown)", "VH": "B1 VH with A28T, T53A", "VL": "B1 VL", "notes": "as for B1"}, "B35": {"name": "pY0192 VL T93A (Fab, V domains shown)", "VH": "B1 VH with A28T", "VL": "B1 VL with T93A", "notes": "as for B1"}, "B36": {"name": "pY0192 VL H55A (Fab, V domains shown)", "VH": "B1 VH with A28T", "VL": "B1 VL with H55A", "notes": "as for B1"}, "B37": {"name": "pY0192 VL Y32A (Fab, V domains shown)", "VH": "B1 VH with A28T", "VL": "B1 VL with Y32A", "notes": "Ala-scan variant of pY0192; Fab on phage; also called Y32A (VL)"}}, "note": "Numbering of substitutions follows the chain as printed. In names and notes the source's numbering stands.", "data": [{"target": "T1, VEGF (human, UniProt P15692-4 27-191, limits assumed)", "T1 construct": "Biotinylated in the KDR-IgG ELISA, amine-coupled to the chip in BIAcore; also called biotinylated VEGF; vascular endothelial growth factor", "T1 sequence (P15692 other isoform, or with tags, fused parts or gaps limits assumed)": "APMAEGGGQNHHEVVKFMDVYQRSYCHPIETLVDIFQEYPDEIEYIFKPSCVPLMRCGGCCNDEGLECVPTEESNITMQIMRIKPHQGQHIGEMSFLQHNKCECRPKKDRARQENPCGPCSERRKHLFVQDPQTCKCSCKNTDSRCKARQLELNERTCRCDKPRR", "assay": "competitive phage-ELISA, relative to pY0192", "procedure": "In such an assay, phages were first serially diluted to determine a fractional saturation titer which was then held constant and used to incubate with varying concentrations of VEGF (starting at 200 nM to 0 nM) in solution. The mixture was then transferred onto plate precoated with VEGF (2 μg/mL) and blocked with 5% instant milk, and allowed to equilibrate for 1 hour at room temperature. Thereafter, the phage solution was removed and the remaining bound phages were detected with a solution of rabbit anti-phage antibody mixed with goat anti-rabbit conjugate of horse radish peroxidase. After an hour incubation at room temperature, the plate was developed with a chromogenic substrate, o-phenylenediamine (Sigma). The reaction was stopped with addition of ½ volume of 2.5 M H₂SO₄. Optical density at 492 nm was measured on a spectrophotometric plate reader.\nIC50's were determined in a competitive phage-ELISA assay.", "units": {"IC50 (mut)/IC50 (wt)": "ratio"}, "values": [{"binder": "B1", "IC50 (mut)/IC50 (wt)": 1}, {"binder": "B2", "IC50 (mut)/IC50 (wt)": 2}, {"binder": "B3", "IC50 (mut)/IC50 (wt)": 4}, {"binder": "B4", "IC50 (mut)/IC50 (wt)": 14}, {"binder": "B5", "IC50 (mut)/IC50 (wt)": 1}, {"binder": "B6", "IC50 (mut)/IC50 (wt)": 2}, {"binder": "B7", "IC50 (mut)/IC50 (wt)": 1}, {"binder": "B8", "IC50 (mut)/IC50 (wt)": 4}, {"binder": "B9", "IC50 (mut)/IC50 (wt)": 9}, {"binder": "B10", "IC50 (mut)/IC50 (wt)": 19}, {"binder": "B11", "IC50 (mut)/IC50 (wt)": 1}, {"binder": "B12", "IC50 (mut)/IC50 (wt)": 3}, {"binder": "B13", "IC50 (mut)/IC50 (wt)": 34}, {"binder": "B14", "IC50 (mut)/IC50 (wt)": 1}, {"binder": "B15", "IC50 (mut)/IC50 (wt)": 4}, {"binder": "B16", "IC50 (mut)/IC50 (wt)": 2}, {"binder": "B17", "IC50 (mut)/IC50 (wt)": 1}, {"binder": "B18", "IC50 (mut)/IC50 (wt)": 4}, {"binder": "B19", "IC50 (mut)/IC50 (wt)": 1}, {"binder": "B20", "IC50 (mut)/IC50 (wt)": 1}, {"binder": "B21", "IC50 (mut)/IC50 (wt)": 1}, {"binder": "B22", "IC50 (mut)/IC50 (wt)": 1}, {"binder": "B23", "IC50 (mut)/IC50 (wt)": 5}, {"binder": "B24", "IC50 (mut)/IC50 (wt)": 2}, {"binder": "B25", "IC50 (mut)/IC50 (wt)": 3}, {"binder": "B26", "IC50 (mut)/IC50 (wt)": 2}, {"binder": "B27", "IC50 (mut)/IC50 (wt)": 1}, {"binder": "B28", "IC50 (mut)/IC50 (wt)": 1}, {"binder": "B29", "IC50 (mut)/IC50 (wt)": 3}, {"binder": "B30", "IC50 (mut)/IC50 (wt)": 1}, {"binder": "B31", "IC50 (mut)/IC50 (wt)": 1}, {"binder": "B32", "IC50 (mut)/IC50 (wt)": 1}, {"binder": "B33", "IC50 (mut)/IC50 (wt)": 1}, {"binder": "B34", "IC50 (mut)/IC50 (wt)": 9}, {"binder": "B35", "IC50 (mut)/IC50 (wt)": 1}, {"binder": "B36", "IC50 (mut)/IC50 (wt)": 1}, {"binder": "B37", "IC50 (mut)/IC50 (wt)": 2}]}]}
